Assay results taken from article PMC12343972 (Nature Communications, 2025).

B1: S. cerevisiae Mre11 with a C-terminal 1xFLAG tag (natural protein)
chain: MDYPDPDTIRILITTDNHVGYNENDPITGDDSWKTFHEVMMLAKNNNVDMVVQSGDLFHVNKPSKKSLYQVLKTLRLCCMGDKPCELELLSDPSQVFHYDEFTNVNYEDPNFNISIPVFGISGNHDDASGDSLLCPMDILHATGLINHFGKVIESDKIKVVPLLFQKGSTKLALYGLAAVRDERLFRTFKDGGVTFEVPTMREGEWFNLMCVHQNHTGHTNTAFLPEQFLPDFLDMVIWGHEHECIPNLVHNPIKNFDVLQPGSSVATSLCEAEAQPKYVFILDIKYGEAPKMTPIPLETIRTFKMKSISLQDVPHLRPHDKDATSKYLIEQVEEMIRDANEETKQKLADDGEGDMVAELPKPLIRLRVDYSAPSNTQSPIDYQVENPRRFSNRFVGRVANGNNVVQFYKKRSPVTRSKKSGINGTSISDRDVEKLFSESGGELEVQTLVNDLLNKMQLSLLPEVGLNEAVKKFVDKDEKTALKEFISHEISNEVGILSTNEEFLRTDDAEEMKALIKQVKRANSVRPTPPKENDETNFAFNGNGLDSFRSSNREVRTGSPDITQSHVDNESRITHISQAESSKPTSKPKRVRTATKKKIPAFSDSTVISDAENELGDNNDAQDDVDIDENDIIMVSTDEEDASYGLLNGRKTKTKTRPAASTKTASRRGKGRASRTPKTDILGSLLAKKRK
B2: 83-mer dsDNA (cryo-EM) (dsDNA)
DNA 1: TTGATAAGAGGTCATTTTTGCGGATGGCTTAGAGCTTAATTGCTGAATCTGGTGCTGTAGCTCAACATGTTTTAAATATGCAA
DNA 2: TTGCATATTTAAAACATGTTGAGCTACAGCACCAGATTCAGCAATTAAGCTCTAAGCCATCCGCAAAAATGACCTCTTATCAA

How the values were obtained:
[1] = biological target: T1, S. cerevisiae Rad50-E1235Q (S. cerevisiae, UniProt P12753, E1235Q); assay: cryo-EM structure
T1 sequence: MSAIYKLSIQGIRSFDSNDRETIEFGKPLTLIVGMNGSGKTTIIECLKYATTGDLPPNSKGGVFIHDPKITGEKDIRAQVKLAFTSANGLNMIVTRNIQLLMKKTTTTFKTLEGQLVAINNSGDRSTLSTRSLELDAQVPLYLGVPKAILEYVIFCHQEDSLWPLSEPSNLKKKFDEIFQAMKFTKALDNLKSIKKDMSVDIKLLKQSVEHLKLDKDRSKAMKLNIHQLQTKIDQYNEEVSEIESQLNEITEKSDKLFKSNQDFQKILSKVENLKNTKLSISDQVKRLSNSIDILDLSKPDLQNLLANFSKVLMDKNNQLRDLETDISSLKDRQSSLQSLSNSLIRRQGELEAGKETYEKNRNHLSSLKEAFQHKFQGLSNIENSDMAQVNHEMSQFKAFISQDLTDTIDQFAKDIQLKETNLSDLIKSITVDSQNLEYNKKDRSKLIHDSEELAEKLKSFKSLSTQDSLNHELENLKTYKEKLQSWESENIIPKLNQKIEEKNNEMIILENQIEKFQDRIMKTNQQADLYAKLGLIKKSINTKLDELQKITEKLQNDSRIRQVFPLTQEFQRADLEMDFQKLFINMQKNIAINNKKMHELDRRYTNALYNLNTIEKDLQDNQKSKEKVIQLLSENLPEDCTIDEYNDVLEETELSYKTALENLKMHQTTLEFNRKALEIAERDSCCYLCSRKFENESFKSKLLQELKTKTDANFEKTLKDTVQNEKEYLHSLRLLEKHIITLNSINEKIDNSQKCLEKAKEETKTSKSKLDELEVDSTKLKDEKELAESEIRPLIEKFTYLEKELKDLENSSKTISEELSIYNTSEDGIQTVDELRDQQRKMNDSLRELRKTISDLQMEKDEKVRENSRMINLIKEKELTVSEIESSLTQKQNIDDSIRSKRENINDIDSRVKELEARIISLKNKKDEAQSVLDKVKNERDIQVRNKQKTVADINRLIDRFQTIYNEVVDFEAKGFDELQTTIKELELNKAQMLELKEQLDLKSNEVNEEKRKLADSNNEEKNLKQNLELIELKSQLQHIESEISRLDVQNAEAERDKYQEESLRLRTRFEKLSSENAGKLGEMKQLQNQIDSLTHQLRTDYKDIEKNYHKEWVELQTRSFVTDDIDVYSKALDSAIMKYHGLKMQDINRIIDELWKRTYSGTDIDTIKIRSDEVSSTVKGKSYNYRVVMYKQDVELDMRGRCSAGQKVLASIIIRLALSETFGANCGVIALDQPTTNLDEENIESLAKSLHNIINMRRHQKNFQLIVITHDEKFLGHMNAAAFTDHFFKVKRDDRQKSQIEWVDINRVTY

[2] = biological target: Rad50 E1235Q (MREQ complex);Mre11 (Saccharomyces cerevisiae;Saccharomyces …, UniProt P12753;P32829 1-1312;1-692, E1235Q|); assay: cryo-EM 3.2 A

Binder	binding result [1]	binding result [2]
B1	binds	
B2		binds
